In US20250051406, “CELL TARGETING COMPOSITIONS AND METHODS” (The Trustees of Indiana University, published 2025):

Target: ZFP K-Ras G12D (six-finger zinc finger protein) (synthetic construct)
Test: dot blot, 400 ng gDNA of PANC-1 (heterozygous G12D), ZFP 10 ug/ml, TBS-T/milk, RT; much stronger than WT or G13D gDNA
Conditions: tags: N-terminal 3xFLAG, NLS; expressed in E. coli from pET-30a(+)
Procedure: Genomic DNA (gDNA) was extracted from cancer cells using QIAamp DNA Mini Kit (51104, Qiagen Sciences, Inc., Germantown, MD). Concentration of the gDNA was measured by Qubit dsDNA BR Assay kit (Q32853, Invitrogen™, Thermo Fisher Scientific Inc., Waltham, MA) and adjusted to the same contraction. 400 ng of each gDNA was spotted onto a nitrocellulose membrane (15356, Sigma-Aldrich, Burlington, MA) using narrow-mouth pipette tip. Membranes were allowed to dry and then blocked by soaking in 5% non-fat milk in tris-buffered saline tween (TBS-T) at room temperature (RT) for 1 hour. Blocked membranes were incubated with ZFP ([…]) dissolved in milk/TBS-T for 1 hour at RT. The membranes were washed three times with TBS-T and incubated with anti-FLAG@antibody conjugated with horseradish peroxidase (HRP) (86861S, Cell Signaling Technology, Inc., Danvers, MA). The membranes were then washed three times with TBS-T (15 min×1, 5 min×2) and once with TBS (5 min). The signals were developed with enhanced chemiluminescent (ECL) horseradish peroxidase (HRP) substrate (SuperSignal West Pico PLUS Chemiluminescent Substrate, Catalog #34580, Thermo Fisher Scientific) and captured using the ChemiDoc MP Imaging System (12003154, Bio-Rad Laboratories, Hercules, CA).
FIG. 4 depicts dot blot results showing that the ZFPs from Example 3 can distinguish DNA sequences with one or two point mutations in vitro. […]

ZFP K-Ras G12D (six-finger zinc finger protein) (synthetic construct), sequence (chain, as listed by the source G12D G12D): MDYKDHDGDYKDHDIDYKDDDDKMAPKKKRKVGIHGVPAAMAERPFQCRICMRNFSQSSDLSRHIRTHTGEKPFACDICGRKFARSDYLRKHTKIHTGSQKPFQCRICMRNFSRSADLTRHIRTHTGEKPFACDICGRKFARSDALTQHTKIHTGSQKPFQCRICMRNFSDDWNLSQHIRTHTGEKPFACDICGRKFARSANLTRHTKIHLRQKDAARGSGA

B1: KRAS G12D target site (codon 12 GAT) (dsDNA)
DNA 1: GAGCTGATGGCGTAGGCA
DNA 2: TGCCTACGCCATCAGCTC
**Q.** Does B1 bind?
**A.** binds
